Data: article doi:10.1101/2025.03.26.645513v1

Test system: CC(=O)OC[C@H](N)C(=O)O
Experiment: purified protein
Details: 30 mM Na2S, MOPS, 37 °C, no glycerol, cooperative

Substance NgCysK (Neisseria gonorrhoeae FA 1090) has a K0.5 of 1.541 ± 0.306 mM.
